In PMC3186216 (Biochemistry, 2010):

Target: T1, calnexin (dog (endogenous in MDCK), UniProt P24643 21-593)
T1 sequence (looked up): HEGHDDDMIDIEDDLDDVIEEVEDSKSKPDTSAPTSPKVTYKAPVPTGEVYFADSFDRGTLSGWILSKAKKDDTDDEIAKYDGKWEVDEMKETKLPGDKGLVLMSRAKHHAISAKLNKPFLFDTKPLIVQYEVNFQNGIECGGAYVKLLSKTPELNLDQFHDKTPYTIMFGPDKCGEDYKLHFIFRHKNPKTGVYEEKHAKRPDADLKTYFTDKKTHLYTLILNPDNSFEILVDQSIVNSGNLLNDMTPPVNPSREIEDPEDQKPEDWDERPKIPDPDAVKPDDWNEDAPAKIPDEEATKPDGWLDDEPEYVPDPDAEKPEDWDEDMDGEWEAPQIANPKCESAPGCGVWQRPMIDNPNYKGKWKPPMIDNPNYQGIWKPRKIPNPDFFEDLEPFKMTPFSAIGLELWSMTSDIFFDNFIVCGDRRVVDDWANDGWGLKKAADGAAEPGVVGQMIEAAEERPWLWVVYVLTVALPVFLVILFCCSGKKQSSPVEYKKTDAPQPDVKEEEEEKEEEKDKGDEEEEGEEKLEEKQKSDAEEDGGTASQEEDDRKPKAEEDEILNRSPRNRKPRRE
Test: co-IP

normalised amount coprecipitated, fold of that of YFP-β1: ~7 fold
B1: YFP-linked Na,K-ATPase β2 subunit (human), wild type (natural protein, UniProt P14415 1-290, looked up)
chain: MVIQKEKKSCGQVVEEWKEFVWNPRTHQFMGRTGTSWAFILLFYLVFYGFLTAMFTLTMWVMLQTVSDHTPKYQDRLATPGLMIRPKTENLDVIVNVSDTESWDQHVQKLNKFLEPYNDSIQAQKNDVCRPGRYYEQPDNGVLNYPKRACQFNRTQLGNCSGIGDSTHYGYSTGQPCVFIKMNRVINFYAGANQSMNVTCAGKRDEDAENLGNFVMFPANGNIDLMYFPYYGKKFHVNYTQPLVAVKFLNVTPNVEVNVECRINAANIATDDERDKFAGRVAFKLRINKT
modifications: N-glycans at all eight N-glycosylation sites; only the high-mannose form coprecipitated with calnexin
